Earlier results, collected in article PMC3634455.

How the values were obtained:
[1] = molecular target: plasminogen (Homo sapiens) (UniProt P00747)
[2] = molecular target: tPA (Homo sapiens) (UniProt P00750)
Chain of UniProt P00750 (P00750 36-562): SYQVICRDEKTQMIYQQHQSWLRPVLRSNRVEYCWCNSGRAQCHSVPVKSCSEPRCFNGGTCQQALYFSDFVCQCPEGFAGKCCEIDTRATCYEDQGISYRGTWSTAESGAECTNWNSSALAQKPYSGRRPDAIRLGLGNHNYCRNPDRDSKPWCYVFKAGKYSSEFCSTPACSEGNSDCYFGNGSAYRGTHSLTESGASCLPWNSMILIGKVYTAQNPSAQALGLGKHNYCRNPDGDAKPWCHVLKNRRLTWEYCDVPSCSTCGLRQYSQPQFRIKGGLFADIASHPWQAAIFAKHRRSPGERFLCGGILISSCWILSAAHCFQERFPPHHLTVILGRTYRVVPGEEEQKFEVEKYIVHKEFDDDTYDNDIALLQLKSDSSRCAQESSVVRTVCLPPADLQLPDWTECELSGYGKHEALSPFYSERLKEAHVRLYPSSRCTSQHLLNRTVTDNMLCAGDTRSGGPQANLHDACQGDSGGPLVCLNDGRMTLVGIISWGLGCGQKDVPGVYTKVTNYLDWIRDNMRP

Chain of UniProt P00747 (P00747 20-810): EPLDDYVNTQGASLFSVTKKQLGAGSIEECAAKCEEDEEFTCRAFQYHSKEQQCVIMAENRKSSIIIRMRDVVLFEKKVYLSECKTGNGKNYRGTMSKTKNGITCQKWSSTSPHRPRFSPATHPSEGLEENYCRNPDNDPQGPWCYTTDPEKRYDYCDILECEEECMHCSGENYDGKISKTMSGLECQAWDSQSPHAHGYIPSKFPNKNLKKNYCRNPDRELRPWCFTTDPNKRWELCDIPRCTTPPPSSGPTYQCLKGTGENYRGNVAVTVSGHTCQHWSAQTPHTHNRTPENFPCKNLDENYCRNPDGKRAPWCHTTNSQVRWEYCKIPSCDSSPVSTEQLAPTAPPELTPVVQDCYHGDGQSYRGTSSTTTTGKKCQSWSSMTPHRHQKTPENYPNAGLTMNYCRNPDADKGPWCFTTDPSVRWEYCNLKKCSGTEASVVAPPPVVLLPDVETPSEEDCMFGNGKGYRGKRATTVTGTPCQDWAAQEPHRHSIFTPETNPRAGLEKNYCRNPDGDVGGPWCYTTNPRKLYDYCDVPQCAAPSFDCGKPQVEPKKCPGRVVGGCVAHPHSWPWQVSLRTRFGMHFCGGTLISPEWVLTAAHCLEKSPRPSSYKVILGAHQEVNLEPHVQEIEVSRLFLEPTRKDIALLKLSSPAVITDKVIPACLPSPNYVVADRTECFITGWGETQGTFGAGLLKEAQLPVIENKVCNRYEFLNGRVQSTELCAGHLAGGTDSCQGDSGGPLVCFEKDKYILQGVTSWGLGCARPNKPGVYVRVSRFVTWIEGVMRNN

Kd [1]: 110 nM
Kd [2]: 680 nM
Substance: S100A10 (annexin A2 heterotetramer) (from UniProt P60903)
